Data taken from patent publication US20250355001A1 (GTINVENT, published 2025).
Residue numbers refer to the chain shown, from its start.

Key:
[1] = molecular target: T1, full length human tau protein 2N4R (hT40) (human, UniProt P10636 1-758); test: SPR, summary table
T1 construct: recombinant; also called T441
Protocol: (§1) The capture antibody was diluted 1/100 in 10 mM Sodium acetate buffer pH 5.0 and passed over the activated chip surface for a period of at least 420 s. Final ligand immobilisation levels over 12,000 RU were deemed to be satisfactory.
(§2) The scAb to be tested was added only to flow cell 2 so that flow cell 1 could act as a control to subtract any interaction with the analyte and the chip surface. […] The multi-cycle protocol was as follows-Three start-up cycles composed of an initial capture, to the desired level, of the scAb to be tested was performed followed by a 30 s injection of glycine buffer pH 2.0 after each cycle to regenerate the chip surface. […] The target was added for a 120 s association period and 420 s dissociation period followed by another regeneration, 30 s injection of glycine buffer pH 2.0 in between each cycle.
(§3) The single cycle kinetics protocol was similar and utilised the same level of scAb capture. […] In single cycle kinetics the regeneration step was performed only after the final analyte concentration was added. Binding responses were analysed in Biacore X100 evaluation software and data fitted to a 1:1 binding model to obtain kinetic and affinity characterisation.

[2] = molecular target: T1, full length human tau protein 2N4R …; test: SPR, scAb captured, tau analyte
Protocol: as §1, §2, §3

dGA (tau 297-390) = dGA (tau 297-390) (human, UniProt P10636 614-707); test: SPR, scAb captured, tau analyte
Protocol: as §1, §2, §3

[3] = molecular target: T1, full length human tau protein 2N4R …; test: Biacore
Protocol: as §1, §2, §3

[4] = molecular target: T1, full length human tau protein 2N4R …; test: sandwich ELISA, S1D12 mAb capture, scAb detection
Protocol: Full length tau (hT40), at 1 μg/ml starting concentration was added to designated wells and double diluted across rest of the plates and left to incubate at R/T for 1 h. A series of detection scAbs with varying epitope recognition properties were added at 10 μg/ml to designated wells (FIG. 22). For colourimetric detection HRP conjugated anti-HuCk secondary antibody was used and the resulting immunoreaction was developed and absorbance at 450 nm measured as described previously. Cut-off point for a positive binding event was an absorbance value of 0.3 following background subtraction. In order to enhance the assay sensitivity, a chemiluminescent detection method was adopted where 50 μL SuperSignal ELISA Femto Substrate (Thermo Scientific) was added to each well following incubation with anti-HuCK HRP antibody and subsequent washing. The luminescence was read using Clariostar Plus microplate reader. A further modification to this protocol was done where various detection scAbs were directly conjugated with HRP and detected using chemiluminescent protocol as before.

[5] = molecular target: T1, full length human tau protein 2N4R …; test: SPR, hT40 immobilised, mAb analyte
Protocol: (§4) For anti-tau mAb SPR measurements, htau40 was conjugated to the surface of a CM5 sensor chip using amine coupling as explained previously. Briefly, 2 μg/mL htau40 in 10 mM Sodium acetate buffer (pH 4.0) was passed over the activated chip surface (EDC/NHS) in flow cell 2 for a period for 45 s followed by blocking with 1 M ethanolamine-HCl PH 8.5. Flow cell 1 was set up as reference control and blocked simultaneously. Final immobilisation level of htau40 (Rmax) was approximately 250 RU. […] The mAb was added for a 120 s association period and 600 s dissociation period followed by a regeneration cycle of 30 s injection of glycine buffer pH 1.5 in between each cycle. Binding responses were analysed in Biacore X100 evaluation software and data fitted to a 1:1 binding model to obtain kinetic and affinity characterisation.

[6] = molecular target: T1, full length human tau protein 2N4R …; test: SPR, hT40 immobilised, mAb analyte; remark: listed apart in the source
Protocol: as §4
For anti-tau mAb SPR measurements (Biacore X100™) and epitope mapping, the same methodologies described above (see Example 16) were followed.

T1 sequence (P10636 other isoform, or with tags, fused parts or gaps limits assumed): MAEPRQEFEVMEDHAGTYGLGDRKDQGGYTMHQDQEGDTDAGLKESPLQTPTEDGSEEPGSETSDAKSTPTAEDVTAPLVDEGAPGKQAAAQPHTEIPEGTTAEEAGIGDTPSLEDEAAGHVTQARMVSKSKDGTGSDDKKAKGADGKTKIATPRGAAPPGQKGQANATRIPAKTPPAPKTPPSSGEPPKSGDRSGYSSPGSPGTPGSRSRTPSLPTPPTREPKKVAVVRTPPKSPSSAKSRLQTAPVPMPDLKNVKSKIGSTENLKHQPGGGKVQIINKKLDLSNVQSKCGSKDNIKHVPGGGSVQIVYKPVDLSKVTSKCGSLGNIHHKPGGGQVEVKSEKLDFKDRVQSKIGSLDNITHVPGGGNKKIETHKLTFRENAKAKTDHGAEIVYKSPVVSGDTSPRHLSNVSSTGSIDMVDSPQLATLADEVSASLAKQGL
Chain of dGA (tau 297-390) (P10636 614-707 limits assumed): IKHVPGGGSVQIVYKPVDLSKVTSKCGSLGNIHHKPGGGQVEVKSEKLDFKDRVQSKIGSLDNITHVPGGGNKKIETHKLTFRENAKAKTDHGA

B1: S1E12 scAb (scFv, not shown: small tags and cut ends)
scFv: QVQLQESGPSLVKPSQTLSLTCTVSGFSLGSNSVGWVRQAPGKAPEWVAGIDTDGEEGYNPALNSRLSITRDTSKSQVSLSLSSVTSEDTAVYYCGRSYRADGLAYGYVQAIDYWGPGLLVTVSSEGKSSGASGESKVDDRVVRTQPSSVSGSLGQRVSITCSGSFIGISSVGWFQQLPGSGLRTIIVASDGRPSGVPDRFSMSKSGNTATLTISSLQAEDEADYFCGSSDRTQYTGVFGSGTRLTVLG
notes: scAb
**Q.** How did the Kd [1] turn out when B1 was run?
**A.** Its Kd is 0.829 nM.

**Q.** What about the Kd [2] of the same binder?
**A.** Its Kd is 0.829 nM.

**Q.** What about the koff [2] of the same binder?
**A.** The koff was 0.000319 s⁻¹.

**Q.** And the kon [2]?
**A.** The kon was 385000 M⁻¹ s⁻¹.

**Q.** And the Kd (dGA (tau 297-390))?
**A.** Its Kd is 0.543 nM.

**Q.** And the koff (dGA (tau 297-390))?
**A.** Its koff is 0.00163 s⁻¹.

**Q.** What about the kon (dGA (tau 297-390)) of the same binder?
**A.** The kon was 2.99e+06 M⁻¹ s⁻¹.

B2: CC7 scAb (scFv, not shown: small tags and cut ends)
scFv: QVQLQESGPSLVKPSQTLSLTCTVSGFSLTSNAVIWVRQAPGKAPEWVALIDVDGDAAYDPALKSRLSITRDTSKSQVSLSLRSVTTEDTAVYYCARDYGSWGYVSDIDYWGPGLLVTVSSEGKSSGASGESKVDDRVVRTQPSSVSGSLGQRVSITCSGSYITGSSVGWFQQVPGSGLKTVIYDNNDRPSGVPDRFSGSKSGDTATLTISSLQAEDEADYYCASYDTSNIGLFGSGTRLTVLG
notes: scAb
**Q.** What does the source list for B2?
**A.** Kd [3]: 1.2 nM; Kd [1]: 1.23 nM; Kd [2]: 1.23 nM; koff [2]: 0.000366 s⁻¹; kon [2]: 296000 M⁻¹ s⁻¹; LoD chemiluminescence detection [4]: 3.33 ng/mL; LoD colourimetric detection [4]: 6 ng/mL

B3: 412E10 mAb (antibody, mouse IgG2a, V domains shown)
VH: QVQLQESGPSLVKPSQTLSLTCTVSGFSVISDSVAWVRQAPGKVPEWLGASGSSGNKYYNPALKSRLSITRDTSKSQVSLSLSSVTTEDTAVYYCARGIIAGVDVWGRGLLVTVSS
VL: QAVLTQPSSVSGSLGQRVSITCSGSSSNVGYGNYVGWYQQVPGSAPKLLIYGTAIRASGVPDRFSGSRSGDTATLTITSLQAEDEADYYCASYQSNYAFFGSGTRLTVLG
notes: sheep-mouse IgG2a chimeric mAb
**Q.** How did the Kd [5] turn out when B3 was run?
**A.** The Kd was 9 nM.

**Q.** What about the koff [5] of the same binder?
**A.** The koff was 0.015 s⁻¹.

**Q.** What about the kon [5] of the same binder?
**A.** The kon was 1.66e+06 M⁻¹ s⁻¹.

B4: MD9 mAb (antibody, V domains shown)
VH: QVRLQESGPSLVKSSQTLSLTCTVSGFSLTRESIAWVRQAPGKVPEWLGGVGIDGTSYYSPALKSRLSITRDTSKSQASLSLSSVATEDTAMYYCARNYIDFEYWGPGLLVTVSS
VL: QAVLTQLSSVSGSLGQRISITCSGSSSNVGIYDVSWFQQLPGSGLRTVIYGTNNRPSGVPDRFSGSRSGNTATLTISSLQSEDEAIYYCAAGDSSTIAVFGSGTRLTVLG
**Q.** What does the source list for B4?
**A.** Kd [6]: 22 nM; koff [6]: 0.00146 s⁻¹; kon [6]: 66200 M⁻¹ s⁻¹

B5: CE3 mAb (antibody, mouse IgG2a, V domains shown)
VH: QVRLQESGPSLVKPSQTLSVTCTVSGFSLISNAVGWVRQAPGKVPESLAGCSSDGKCYYNSALKSRLDITRDTSKNQISLSLSSVTTDDAAVYYCTRGYYPVYGYDYLGTIDYWGPGLLVTVSS
VL: QAVLTQPSSVSGSLGQRVSITCSGSSSNVGRNDVAWFQQLPGSGLRTIIYGTTSRPSGIPDRFSGSKSGVTATLTIDSLQAEDEADYFCASGDSSAINDIFGSGTRLTVLG
notes: as for B3
**Q.** Which Kd [5] does the source give for B5 here?
**A.** The Kd was 16.7 nM.

**Q.** And the koff [5]?
**A.** Its koff is 0.00172 s⁻¹.

**Q.** What about the kon [5] of the same binder?
**A.** Its kon is 103000 M⁻¹ s⁻¹.

B6: 3bG4 mAb (antibody, mouse IgG2a, V domains shown)
VH: QVQLQESGPSLVKPSQTLSLTCTISGFSLISNGVGWVRQAPGKVPEWVGDIASSGKAYSNPALKSRLSITRDTSKSQVSLSLRSVTTEDTAVYYCVRCRDGGVTYGYDIDYWGPGLLVTVSS
VL: QAVLTQPSSVSKSLGQSVSITCSGSTSNVGSGNDVSWFQQVPGSAPKLLFYGATNRASGVPDRFSGSRSGNTATLTITSLQAEDEADYYCGSYDSNSGGIFGSGTRLTVLG
notes: as for B3
**Q.** B6 was tested. Which Kd [6] did it give?
**A.** The Kd was 0.065 nM.

**Q.** And the koff [6]?
**A.** The koff was 0.000296 s⁻¹.

**Q.** What about the kon [6] of the same binder?
**A.** The kon was 4.54e+06 M⁻¹ s⁻¹.

B7: 3aG3 mAb (antibody, V domains shown)
VH: B6 VH with I24V, I30S, A52S, S59A, S74A, S76T, S79F, R83S, T104S
VL: QAVLTQPPSVSGSPGQRVSITCSGSSSNIGGGNYLSWFQQVPGSAPKLLIYGATSRASGVPDRFSGSRSGNTATLTISSLQAEDEADYYCASFDTSSGGIFGAGTRLTVLG
**Q.** Which Kd [6] does the source give for B7 here?
**A.** Its Kd is 0.31 nM.

**Q.** What about the koff [6] of the same binder?
**A.** The koff was 0.00475 s⁻¹.

**Q.** And the kon [6]?
**A.** Its kon is 1.53e+07 M⁻¹ s⁻¹.

B8: CE2 mAb (antibody, mouse IgG2a, V domains shown)
VH: QVQLQESGPSLVKPSQTLSLTCTVSGFSLTNYPVGWVRQAPGKALEWIGNIENDGSANYASALKSRLSITRDTSKNQVSLSLSSATTEDTAVYYCGREFGGSDGYTYFVDIDYWGPGLLVTVSS
VL: QAVLTQPSSVSKSLGQSVSITCSGSSSNVGYGNYVSWFQQVPGSAPKILIYGATSRASGVPDRFSGSRSGNTATLTITSLQAEDEADYYCASYDGSSSGVFGSGTRLTVLG
notes: as for B3
**Q.** Which results are given for B8?
**A.** Kd [5]: 11 nM; koff [5]: 0.00522 s⁻¹; kon [5]: 458000 M⁻¹ s⁻¹

B9: E1B8 mAb (antibody, V domains shown)
VH: B8 VH
VL: B8 VL
**Q.** Which Kd [6] does the source give for B9 here?
**A.** Its Kd is 4.22 nM.

**Q.** What about the koff [6] of the same binder?
**A.** Its koff is 0.00137 s⁻¹.

**Q.** What about the kon [6] of the same binder?
**A.** Its kon is 324000 M⁻¹ s⁻¹.

B10: 3aH6 mAb (antibody)
heavy: QVQLQESGPSLVKPSQTLSLTCTVSGFSLSSNGVGWVRQAPGKVPEWLGDISSVGKKYANPALKSRLSFTRDTSKSQVSLSLSSVTTEDTAVYYCVKCRDGGVTYGYDIDYWGPGLLVTASSAKTTAPSVYPLAPVCGDTTGSSVTLGCLVKGYFPEPVTLTWNSGSLSSGVHTFPAVLQSDLYTLSSSVTVTSSTWPSQSITCNVAHPASSTKVDKKIEPRGPTIKPCPPCKCPAPNLLGGPSVFIFPPKIKDVLMISLSPIVTCVVVDVSEDDPDVQISWFVNNVEVHTAQTQTHREDYNSTLRVVSALPIQHQDWMSGKEFKCKVNNKDLPAPIERTISKPKGSVRAPQVYVLPPPEEEMTKKQVTLTCMVTDFMPEDIYVEWTNNGKTELNYKNTEPVLDSDGSYFMYSKLRVEKKNWVERNSYSCSVVHEGLHNHHTTKSFSRTPGK
light: QAVVTQPSSVSGSLGQSVSITCSGSSGNVGYGDYVSWFQQFHGSAPKLLIYGATNLASGVPARFSGSRSGNTATLTISSLHAEDEADYYCASYDSSSGGVFGSGTRLTVLGGQPKSSPSVTLFPPSSEELETNKATLVCTITDFYPGVVTVDWKVDGTPVTQGMETTQPSKQSNNKYMASSYLTLTARAWERHSSYSCQVTHEGHTVEKSLSRADCS
**Q.** For B10, which Kd [6] is on record?
**A.** The Kd was 0.049 nM.

**Q.** What about the koff [6] of the same binder?
**A.** Its koff is 0.000152 s⁻¹.

**Q.** What about the kon [6] of the same binder?
**A.** The kon was 3.13e+06 M⁻¹ s⁻¹.

B11: 3bD11 mAb (antibody)
chain: RVRLQGSGPSLVKPSQTLSLTCTVSGFSFDSYYVGWVRQAPGKALEWLGNIYSTGRAFYNPALKSRLSITRDTSKSQVSLSVSSVTIEDTALYYCVRGSYYHGGGNGMVDFFDYWSPGLLVTVSSEGKSSGASGESKVDDQVVRTQPSSVSGSLGQRVSITCSGSSSNVGYGNYVGWFQQVPGSAPKLLIYAATSRASGVPDRFSGSRSGNTATLTIDSLQAEDEADYYCSSYQRGNTGVFGSGTRLTVLG
**Q.** Which Kd [6] does the source give for B11 here?
**A.** The Kd was 1.49 nM.

**Q.** And the koff [6]?
**A.** Its koff is 0.00398 s⁻¹.

**Q.** What about the kon [6] of the same binder?
**A.** Its kon is 2.67e+06 M⁻¹ s⁻¹.
